Results: a protein production outcome set (Wang et al. 2014)

Experiment: label from the status in PepcDB records

Sequence | protein production
MESLDSVSIAILLGSVLVMAGILSSLLALRFGAPLLLVFLVIGILAGESGPGGINFNDLGTTYLVGSVALALILFDGGLKTRFSSIKAVLAPSMGLATVGVLLTALVTAPVARYALDLSWVEALLASAVVASTDAAAVFLLVHAQGLRLRPRVGATLEVESGTNDPFAVFLTLMLVELITRGESSILHVLIEFVREAALGAVIGVVGGRVVVMALNRVALPQGLHAPFVTTAALVVFGAAQMSHASGFLAVYLAGMIIGNQPTRAHNSVVAFLDAATWLAQIVMFVLLGLLVSPQRLMGSIGPAVVIALALMLVARPLAVFICLAPFRFNWRERLFIAWVGLRGAVAIFLASIPMLVGLSKAYLYFDVAFVVVLISLMLQGWTLAPAARKLLVALPRSDRGPRRIELDLPGQLEQQLVGYAVRPKSLYLKRGLIPSWSKPTLVIRDQRILTPEEAEPVAPGDYVYLLAPPEKAAALDRFFVDMPPSTAPDPHLLGDFIVPGETSLGDLAAAYGISVPPGQEALTLADYFDIYLDQAPMVGATLPLDSIVLVARSLGGGRVNVVGLRLPEEEDEAPPPTRLAKVRTKLSEVWSLLAGV | failed
MTMFGKIFSKKTPKTDIKSNGEALNASEIEQFIKDTLSHYISDNFPQGVLAVCQQLSITQKKKITIKLLMPFVCQGELDLLAQTLSENLARTVNFEIDLAIKPVRQFSLGNDKNKAGQEGMLQGKVANIIAIASGKGGVGKSTTTVNLAYALMCEGARVGILDADIYGPSIPSMLGLKNEKPSSSDGKLMTPVDAKGLSAMSIGFLVDEADATVWRGPMASSAFNQLLNETDWPELDYLLIDMPPGTGDIQLTLAQKVPVAAAVIVTTPQDIALIDAVKGIAMFDKVKVPVLGIVENMSYHLCENCGHKSHIFGEAGGEHMAEDHETKLLGQLPLDITIRQDADFGESDIIENSAGEIANHYRKIARNVSAQLFLQCDTASPLTATVAHKALEHHHHHH | not failed
MRIGVIGTGTIATAVVHGIAGDGHAITVSERSAANAQALAAAYPNVRVASNQVVVEECDILTLGLMAEQAPEILGPLPFRADQQVITLMAGATLEQVAQMVAPARAAAIMMPFPSIAQGGSPIMMQGDADLVAALFGARNRIFAVRDAAEMAAYLCAQAVLSPVARMVDDAAGWLATRVSDPVQGEAFLRALVASSLADTDSASLIEALNTPGGYNQRLRLHMEGAGMGDSLRAGLDALETGA | failed
MKLEERIKSKITILVFIAILMYFLLNYGNDVRGIINNIYSIFFPFILGGCIAFILNIPVTFFSKKLLNCKIKFIGKVVRKYNISISIVASCILIIGIFALISAIIIPNIIQTIKILPNAFDNSITAFQKFVNENSWMSKNVTSLVNNLNIDWNGILNKVKITIITGASSVFMSTLGAATTFASTAIEFVLSFIFSIYILAQKNKLGTQVKMVLYAFFKKQKVDSALEVLKLTSNTFSNFITGQCTVSIILGVMFFIVMTILKLPYAIEVSIIIAFFSVIPMIGSIIGFVLSVLLLLIFNPIKAGVFVFVFLAIKQVEDNFIYPKIVGNSVGLPSILVLVAITLGGKVLGVPGMIMSIPLFSVAYVLLRKEVYTRLEKKALKVE | failed
MTPEPDGPEDRLRRFATIWSRAVFPVTSTPLTRPELENRLLPLARRLSEALRARAFDAAEAKAVGAALIDAHCTDPDALSATLDCVDAYLVLYCGTPDASPGDQEALRTRASRLQHAMAAGFAQALRERTLAEQEAISVAALQAQGVVGQALHASEARFRAVFEGAAIGIGIADLEGNILQINGALLRMFGGSEQAVRGRNVTDWTHPDDAPQVWRLYEELVRGEREHYHVEKAFYRPDGTVLWTNLTVSLLRDADGRPEYQLALMEDTTERRLLNLRLRYEATHDALTGLPNRTLFFERLEKALSAGGGQRFGLCYLDLDGFKTINDSLGHAAGDRLLVEVADRLQSCATAPGEMVARLGGDEFVALTTGPDTEREVDELAGRIMNALVTPISIDGRELAVRGSIGIVEGPAGERGPAEVLRSADITMYRAKSAGGNRFELADPEADARAITRHGLTTALPAALDRNEFFIEYQPLVHLGDGSVRGAEALVRWLHPQHGVLGPDRFIPLAEHTGLIVPLGRWVLEQSVRQAREWQERHCAEAAAPLRINVNLSPCQLTHPGLVSDTVDILERSGLEPGALCLEVTESALIGADDDLLKPLRRLAEMGVDIALDDFGTGYSNLANLRRLPVSILKLDRSFTQGMQQYPADPVDLKIVEGIVTLAHSLDLAVTVEGVETGAQAEQLRILGCDTAQGWYYARPGPPERLHELALVDATG | failed
MISAWLLVLISITYISLLFLIAWAGDRHPGLYKRRLARTHIYGLSLAVYFTSWTFYGAVGRATQEGLAFLPIYLGPLLVFIFFAPLLRRIIYISKRNNSTSIADFIASRYGKSQVLAAMVAIFALIGSVPYIALQLKAIALGFNVLSGTGDSYQELSTAAWNDSAWYITLALAVFTVLFGTRHLESTEHHRGMIQAVAFESLIKLIAFVAVGLFVGYGLYDGFGDLFTRVREADLMGTLTTESLEAPAFLTQTLVAMLAIICLPRQFHVMVVENTDHRDFEVARWAMPIYLIIASAFVIPIAAAGLLSTHLAGSDPDIVILQLPIMAGEHWLAVLAFLGGGSAAAAMVIVCSVAIATMVSNEIIMPGLLKFFRPGMNRRTDLSFLLLTIRRVAIFVVLLTAYGFYRMAGEDYSLTAFGLLSFAAAAQFGPALVGGILWRQGNFTGAAWGLGLGFLMWCYTLLLPALVSTGWVADTLIEHGLFGWNWTRPTALFGSELDQISHGILWSLGVNTGAYILLSLITRQRIREKIQIAAFFHDAQPKAENAQHQSWQGEILTSDLQALTDRFMGEERSESIFRNYERRNAIRLYPQRPASTHLMKYIERQLASVIGASTARVVLESTLTGRDMQIEDVVSIVDEASQAMTFSRELLQSAIENISLGVSVVNHQQQLVVWNHRYLELFNYPKGFVRVGRPVEDLMRYNLTNANLSARRIDDIVENRCNSMREGKPMSYERQRPDGTVVRVDGSPIPGGGYVTTFQDITAMRRTEQALKETNIYLEQRVRERTQELQVINEQMLKAKSVAEQANQSKTRFLASASHDLLQPLNAARLFTSALSGKVNEGETRDLVDHIDSSLGAAEEIISTLLDISKLDAGALEPDIGVFPVNELLRHLATEFSAIAKDQGLELHVVPSTAWVRSDAKLLRRVVQNFLSNAIRYTASGKILMGCRRLKGYLRIEVWDTGPGMSDDQLNHIFEEFRRFQHGRDKKGLGLGLAIVDRISGMLNHPVTVHSIQGKGSVFGITVPVAPADQSRLDAQKSGSSSRRVSNLGGLHVLCIDNDAAILQGMVALLGNWQCDVTAAESLDDALTKLDGRQPDIILADYQLDDNRNGLDAMDSIREHLGNDIPGILITGYMAPEVRDDAGNRGYQVLYKPVKPAALRALVNKLLKQKRS | failed
METIKIGVVGLGTVGTGVVKMLQAHQEKISEITGRKLELACVVVHNLKKHEQVDLGDVQMTDQIATLLDDPSIQIMVEVMGSIHPAKEYITQALQAGKHVVTANKDLIAQYGRELVQIARENHRDLFYEASVAGGIPILRTIDNSFAADRIQRVMGIVNGTTNYIMTQMLTKHWSYDQALSSAQDLGFAESDPTNDVEGLDAAFKMIILTQFAFGMSLSLDHVQVQGITKISPEDIAEAHQLGYTIKLLGIAEEIDDRIAVSVGPVLVSDQHPLATVQNENNAVMVTGTAVGNTMFYGPGAGELPTANSVLSDITTVAKNIALNTTGNTFNSYRQETVLATPEDVVYPHFIALKMRDVPGMMMKLTAIMTRAEVSFSRIIQNQLGDGNARVVIITHAMNDQQLADITREIGEQENMQLLASYKVLKNA | failed
MMTLVILLLFLLFCVLVFWISITFSIKYVLIFTAFLFSGLLVYYSFLTLAGLVHRSRKQKDRTLEHYPSVDILIPAHNEGVVIKDTLEAMAKIEYPGKLTVYLLNDNSQDETPEIGDDFDKAYAHIRHIRVPPGEPKGKSRVLNYGLSISDGEYFCVYDADNQPEPHALRMLVEHAETTEDAVGAVGHVRTVNEKRNWLTRMISLEFQIFQLLMQSGRWLLFQTGSLTGTNMLLRRAALEELGGYDPYAIAEDAELTLRITQKGYLLPIVPESITWEQEPEHLKILIKQRTRWLQGNLYILEKMFSSLSFFKGKLLVHSLQQVLVYVVFWLFLIISNVWFVIGLLGIFQIQYSIPLLFMWYVAYVTYVSQLFSAQSVERTFTPTNIFISVIMYFTYAQLFTYLFIRSLILYLRAKSKKQVIGWDKTVRFKKDK | failed
